Results on one protein are retold here after publication PMC12557607, “The mitochondrial disulphide relay substrate FAM136A safeguards IMS proteostasis and cellular fitness” (Redox Biology, 2025).

The series deals with the molecule itself. Nature of the series: SEC; cleared native HEK293 lysate (100 mM sodium phosphate pH 8.0, 100 mM NaCl, 1 % Triton X-100) on HiLoad 16/600 Superdex 200; fractions blotted for endogenous FAM136A.

B1: FAM136A (natural protein)
chain: not shown
notes: FAM136A, endogenous in HEK293 cells; soluble protein of the mitochondrial intermembrane space; also called endogenous FAM136A; source: endogenous, HEK293 lysate
In the case of B1, the “stoichiometry N” value was approximately 2.
